According to patent US20240027454:

Columns and labels:
[1] = test system: T1, 4-([4-(H-Ala-Ala-Pro-Val-Ala)amido N-piperazino]phenyl)-bis-(4-dimethyl-aminophenyl)-carbenium ion
T1 sequence: AAPVX

[2] = test system: T2, AAPVA-RBB linked to poly-(N-acroyl-Boc-Lys-OH)-co-(acroyl-Cys(Trt)-OH)
T2 sequence: AAPVX

[3] = test system: T3, AAPVA-RBB linked to polymer, product of Step A of Example 62 after trifluoroacetic acid treatment
T3 sequence: AAPVX

[4] = test system: CMC 9M31F-AAPF-RBB
[5] = test system: CMC 9M31F-AAPFA-RBB
[6] = test system: Fmoc-AAPF-aminoethyl-(Remazol Black B)-(N-acetyl)-ethylamide
[7] = test system: H-AAPV-Ahx-CV
[8] = biological target: T4, 4-([4-(H-Ala-Ala-Pro-Val-Ala)amido N-piperazino]phenyl)-bis-(4-dimethyl-aminophenyl)-carbenium ion polyacrylamide (not fully specified)
T4 chain: AAPVX

[9] = biological target: T5, AAAPV-RBB bound to Beads (Sephabeads ECEP, epoxy activated)
T5 chain: AAAPX

[10] = biological target: T6, AAAPV-RBB linked through Jeffamine EDR 176 to polyacrylate quenched with N,N-dioctyl amine (not fully specified)
T6 chain: AAAPX

[11] = biological target: T7, AAAPV-RBB polyacrylamide with N,N-dioctylamine anchors (not fully specified)
T7 chain: AAAPX

[12] = biological target: T8, AAAPVV-RBB linked through Jeffamine EDR 176 to polyacrylate quenched with N,N-dioctyl amine (not fully specified)
T8 chain: AAAPVX

[13] = biological target: T9, AAAPVV-RBB on polyacrylate bound to Chemicell SiCore Amin beads
T9 chain: AAAPVX

[14] = biological target: T10, AAAPVV-RBB on polyacrylate bound to SiCore Amin beads, procedure f
T10 chain: AAAPVX

[15] = biological target: T11, AAAPVV-RBB polyacrylamide with N,N-dioctylamine anchors (not fully specified)
T11 chain: AAAPVX

[16] = biological target: AAPV-RBB-Labelled Silica
[17] = biological target: T12, AAPVA-RBB linked through ethylenediamine-glycyl spacer to polyacrylate (not fully specified)
T12 chain: AAPVX

[18] = biological target: T13, AAPVA-RBB linked to poly-(N-acroyl-Boc-Lys-OH)-co-(acroyl-Cys(Trt)-OH)
T13 chain: AAPVX

[19] = biological target: T14, AAPVA-RBB linked to polymer, product of Step A of Example 62 after trifluoroacetic acid treatment (not fully specified)
T14 chain: AAPVX

[20] = biological target: T15, Fmoc-AAA-indoxyl ester
T15 chain: AAA

[21] = biological target: Fmoc-AAAA-Indoxyl ester
[22] = biological target: Fmoc-AAAPV-(N-acetyl)-indoxyl ester
[23] = biological target: Fmoc-AAAPV-3-Indolamide
[24] = biological target: Fmoc-AAAPV-Indoxylester
[25] = biological target: Fmoc-AAPA-Indoxyl ester
[26] = biological target: Fmoc-AAPF-Indoxyl ester
[27] = biological target: Fmoc-AAPV-(2-Napthol)
[28] = biological target: Fmoc-AAPV-4-methoxy-1-naphthol ester
[29] = biological target: Fmoc-AAPV-4-naphthol ester
[30] = biological target: Fmoc-AAPV-5-Bromo-4-Chloro-Indoxyl ester
[31] = biological target: Fmoc-AAPV-Indoxyl ester
[32] = biological target: T16, Fmoc-APV-Indoxyl ester
T16 chain: APV

[33] = biological target: T17, Fmoc-F-V-T(Bzl)-F- indoxyl ester (not fully specified)
T17 chain: FVTF

[34] = biological target: T18, H-AAAPM-RBB
T18 chain: AAAPX

[35] = biological target: HEC-EDR176-N-Propionyl-AAPVA-RBB
[36] = biological target: N-(Propionyl-AAPV-RBB)-Propylamino HEC
[37] = biological target: T19, N-[(3-triethoxysilyl)propyl]-N'-[AAAPVV-RBB]urea bound to silica gel (not fully specified)
T19 chain: XAAPVX

[38] = biological target: T20, Non-bead-bound polymeric material of Example 67 (AAAPVV-RBB polyacrylamide quenched with ethanolamine) (not fully specified)
T20 chain: AAAPVX

[39] = biological target: Peptide-Labelled beadBALL Amine Microspheres with Long-Chain Linker (PEG(2000)-AAPV-RBB)
[40] = biological target: T21, Poly-co-[(N-mercaptoethyl acrylamide)-(AAAPV-{RBB}-acrylamide)], procedure a (not fully specified)
T21 chain: AAAPX

[41] = biological target: T22, Poly-co-[(N-mercaptoethyl acrylamide)-(AAAPV-{RBB}-acrylamide)], procedure b
T22 chain: AAAPX

[42] = biological target: T23, Poly-co-[(N-mercaptoethyl acrylamide)-(AAAPVV-{RBB}-acrylamide)], procedure a
T23 chain: AAAPVX

[43] = biological target: T24, Poly-co-[(N-mercaptoethyl acrylamide)-(AAAPVV-{RBB}-acrylamide)], procedure b
T24 chain: AAAPVX

[44] = biological target: AAPVA-RBB Bound to Paper Membrane
[45] = biological target: CMC 9M31F-AAPF-RBB; remark: listed apart in the source
[46] = biological target: CMC 9M31F-AAPFA-RBB; remark: listed apart in the source
[47] = biological target: Fmoc-AAAPM-RBB
[48] = biological target: Fmoc-AAPF-aminoethyl-(Remazol Black B)-(N-acetyl)-ethylamide; remark: listed apart in the source
[49] = biological target: T25, Fmoc-AAPVAV-{2-hydroxy-3-[1-(5N-RBB-methyl)1,2,3-triazolyl)}propylamide
T25 chain: XAPVAX

[50] = biological target: H-AAPF-RBB
[51] = biological target: T26, H-AAPFA-RBB
T26 chain: AAPFX

[52] = biological target: T27, H-AAPVAA-RBB
T27 chain: AAPVAX

[53] = biological target: HEC-EDA-N-propionyl-AAPF-RBB
[54] = biological target: HEC-PEG200-N-propionyl-AAPF-RBB

elastase
release of A-CV, MS-analysis [1]: Treatment of the material with elastase released A-CV, as found by MS-analysis (m/z=484, positive mode) | release of Ala-RBB, MS-analysis [2]: Treatment with elastase released Ala-RBB, as found by MS-analysis (m/z=571, negative mode) | release of A-RBB, MS-analysis [3]: Treatment with elastase released A-RBB, as found by MS-analysis (m/z=571, negative mode) | release of the dye, ESI MS [4]: Reaction with elastase is detected using ESI MS to detect the release of the dye | release of the dye, ESI MS [5]: Reaction with elastase was detected using ESI MS to detect the release of the dye | cleavage, product found by MS [6]: reaction with elastase to yield the mono-acetylated-Remazol Black B-amino derivative | release of Ahx-CV, MS-analysis [7]: Treatment of the product of Example 72 with elastase releases no Ahx-CV, as found by MS-analysis (no m/z=526, positive mode)

B1: human elastase from leucocytes (protein)
chain: IVGGRRARPHAWPFMVSLQLRGGHFCGATLIAPNFVMSAAHCVANVNVRAVRVVLGAHNLSRREPTRQVFAVQRIFENGYDPVNLLNDIVILQLNGSATINANVQVAQLPAQGRRLGNGVQCLAMGWGLLGRNRGIASVLQELNVTVVTSLCRRSNVCTLVRGRQAGVCFGDSGSPLVCNGLIHGIASFVRGGCASGLYPDAFAPVAQFVNWIDSIIQ
Human Elastase Cleavage [8]: 0(+) | release of A-CV, mass peak [8]: Treatment with porcine and human elastase releases A-CV, as proven by the appearance of a mass peak at m/z=484 | Human Elastase Cleavage [9]: 0 | Human Elastase Cleavage [10]: + | Human Elastase Cleavage [11]: ++ | Human Elastase Cleavage [12]: + | Human Elastase Cleavage [13]: 0 | Human Elastase Cleavage [14]: 0 | Human Elastase Cleavage [15]: +++ | Human Elastase Cleavage [16]: ++ | Human Elastase Cleavage [17]: + | Human Elastase Cleavage [18]: + | Human Elastase Cleavage [19]: ++ | Human Elastase Cleavage [20]: ++ | Human Elastase Cleavage [21]: 0 | Human Elastase Cleavage [22]: ++ | Human Elastase Cleavage [23]: ++ | Human Elastase Cleavage [24]: ++ | Human Elastase Cleavage [25]: +++ | Human Elastase Cleavage [26]: + | Human Elastase Cleavage [27]: + | Human Elastase Cleavage [28]: + | Human Elastase Cleavage [29]: + | Human Elastase Cleavage [30]: +++ | Human Elastase Cleavage [31]: +++ | Human Elastase Cleavage [32]: + | Human Elastase Cleavage [33]: 0 | Human Elastase Cleavage [34]: + | Human Elastase Cleavage [35]: +++ | Human Elastase Cleavage [36]: +++ | Human Elastase Cleavage [37]: +++ | Human Elastase Cleavage [38]: +++ | Human Elastase Cleavage [39]: 0 | Human Elastase Cleavage [40]: ++ | Human Elastase Cleavage [41]: ++ | Human Elastase Cleavage [42]: +++ | Human Elastase Cleavage [43]: +++

B2: cathepsin G (protein)
chain: IIGGRESRPHSRPYMAYLQIQSPAGQSRCGGFLVREDFVLTAAHCWGSNINVTLGAHNIQRRENTQQHITARRAIRHPQYNQRTIQNDIMLLQLSRRVRRNRNVNPVALPRAQEGLRPGTLCTVAGWGRVSMRRGTDTLREVQLRVQRDRQCLRIFGSYDPRRQICVGDRRERKAAFKGDSGGPLLCNNVAHGIVSYGKSSGVPPEVFTRVSSFLPWIRTTMRS
Cathepsin Cleavage [44]: 0 | Cathepsin Cleavage [45]: ++ | Cathepsin Cleavage [46]: ++ | Cathepsin Cleavage [20]: 0 | Cathepsin Cleavage [21]: 0 | Cathepsin Cleavage [47]: 0 | Cathepsin Cleavage [25]: 0 | Cathepsin Cleavage [26]: 0 | Cathepsin Cleavage [48]: 0 | Cathepsin Cleavage [27]: 0 | Cathepsin Cleavage [28]: 0 | Cathepsin Cleavage [29]: 0 | Cathepsin Cleavage [49]: 0 | Cathepsin Cleavage [32]: 0 | Cathepsin Cleavage [33]: 0 | Cathepsin Cleavage [34]: 0 | Cathepsin Cleavage [50]: 0 | Cathepsin Cleavage [51]: 0 | Cathepsin Cleavage [52]: 0 | Cathepsin Cleavage [53]: + | Cathepsin Cleavage [54]: +
